Measurements: the supplement of paper PMC9732359
± gives the uncertainty stated by the source.

Experiment: protein stability index of a GFP-peptide fusion (yeast GPS) (PSI 1-4); higher = more stable; sorted into four equal gates, so the index is relative within each strain
Method in brief: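 Plasmids in a pooled yeast library fused tiled 17-residue yeast protein peptides downstream of GFP and also expressed Cherry. Mid-log cultures grown without leucine were sorted into four equal gates by GFP/Cherry fluorescence ratio. Each gate's plasmids were PCR-amplified and Illumina-sequenced, and reads were matched to strains by barcodes. The protein stability index is derived by multiplying each gate's read frequency by its gate number and summing the results.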

Sequence | protein stability index (doa10∆) | protein stability index (pdr5∆) | protein stability index (san1∆) | protein stability index (ubr1∆)
DLLKLVHLSNGYKMIPG [FAS1] | 2.3 ± 0.057 | 2.46 ± 0.055 | 2.14 ± 0.064 | 2.24 ± 0.039
NDFKKIGRENENENEDD [POP5] | 3.22 ± 0.11 | 3.28 ± 0.097 | 3.16 ± 0.067 | 2.79 ± 0.11
SDESIERLMTWKFKSLI [RRI2] | 2.26 ± 0.048 | 2.36 ± 0.042 | 2.11 ± 0.066 | 2.31 ± 0.031
LKTNGKQNNKDFRTRYI [MTW1] | 2.75 ± 0.059 | 2.84 ± 0.065 | 2.52 ± 0.081 | 2.51 ± 0.059
AKKLIQSLPPTLKVNRL [RPL38] | 2.15 ± 0.039 | 2.2 ± 0.039 | 2.02 ± 0.048 | 2.27 ± 0.036
LRNYLTPNVREEKQKSY [PUP1] | 3.41 ± 0.21 | 2.88 ± 0.15 | 3.39 ± 0.085 | 3.27 ± 0.16
VSNPLIQRFFALHYLVP [COB] | 1.86 ± 0.054 | 1.88 ± 0.059 | 2.32 ± 0.072 | 1.2 ± 0.041
MFTATMTPVIEKIAAGY [PRP28] | 2.2 ± 0.13 | 1.81 ± 0.11 | 1.5 ± 0.15 | 2.35 ± 0.076
KYPIFTGESWVKLTYNS [YDL088C/ASM4] | 1.82 ± 0.049 | 2.07 ± 0.068 | 2.07 ± 0.1 | 2.34 ± 0.058
SLLDKPDEAIEKVFNAY [FAS1] | 3.15 ± 0.085 | 3.34 ± 0.099 | 3.2 ± 0.066 | 3.29 ± 0.078
RAGGAAASLIMPFLDNQ [PRE7] | – | – | – | 1.11 ± 0.11
YIHLAYSRSVDKEWVFA [SSN2] | 1.81 ± 0.079 | 1.5 ± 0.057 | 1.84 ± 0.091 | 1.72 ± 0.038
SYKRIYGEYPPTKLLVS [PRE8] | 2.87 ± 0.083 | 3.03 ± 0.085 | 2.75 ± 0.1 | 3.09 ± 0.06
PVPSDSTRKKGGRRGRR [RPS14B] | 3.22 ± 0.092 | 3.45 ± 0.074 | 3.31 ± 0.069 | 3.27 ± 0.071
TKRQKHFAWLPTHIWNA [POP1] | 2.03 ± 0.031 | 1.82 ± 0.036 | 1.55 ± 0.05 | 1.74 ± 0.021
ERTKQRTAKAYLKVSEE [PRP8] | 3.08 ± 0.093 | 3.12 ± 0.11 | 3.27 ± 0.056 | 3.34 ± 0.057
SKVSIEQRKEAAEFVLA [RPN7] | 2.12 ± 0.13 | 2.49 ± 0.15 | 2.45 ± 0.09 | 2.45 ± 0.06
VLIKMVKMLRDNPGYKA [SIR3] | 3.34 ± 0.077 | 3.47 ± 0.068 | 3.47 ± 0.039 | 3.33 ± 0.036
NNVNEYSYTTIVLSDQT [YJL039C/NUP192] | 3.11 ± 0.059 | 3.14 ± 0.066 | 3.09 ± 0.045 | 2.93 ± 0.044
ANFGEILEDFRVIKDFK [YMR153W/NUP53] | 3.07 ± 0.14 | 3.4 ± 0.16 | 3.37 ± 0.068 | 3.28 ± 0.096
DHILFTKTFIFIYKKVL [SRB8] | 1.49 ± 0.091 | 1.14 ± 0.14 | 1.15 ± 0.13 | 1.11 ± 0.044
NTNLMNGVNVQIDQLNR [GRR1] | 2.85 ± 0.052 | 3.06 ± 0.061 | 2.88 ± 0.049 | 2.99 ± 0.05
PKARQELPTQLALEIIV [RRP46] | 1.77 ± 0.046 | 1.76 ± 0.045 | 1.52 ± 0.11 | 2.07 ± 0.054
LVSSASQQLLEILVTEL [RPN2] | 1.93 ± 0.059 | 2.27 ± 0.058 | 2.16 ± 0.092 | 1.8 ± 0.051
NRSAKNSKNDSANVELF [YCS4] | 3.09 ± 0.093 | 3.29 ± 0.11 | 2.94 ± 0.12 | 3.39 ± 0.072
SKALYPDYYMIIKYPVA [SNF2] | 2.37 ± 0.039 | 2.31 ± 0.038 | 2.02 ± 0.054 | 2.53 ± 0.031
